How the values were obtained:
Assay type in all cases: cell-based
BE = test: PrestoBlue cell viability, anti-IGF-1R antibody with U0126, BE (melanoma); settings: 48 h
Method: (§1) Cells were incubated in 96 well tissue culture plates and cell viability was measured by PrestoBlue cell viability assay (Invitrogen, CA, USA) according to manufacturer's instructions. Fluorescence was measured with excitation at 560 nm and emission at 590 nm. Cell number was calculated from standard curves of fluorescence measurements from known numbers of cells. Triplicate cultures were performed on all experiments.
(§2) The effects of anti-IGF-1R antibodies/MEK inhibitor combination treatment on viability of different types of tumor cells were investigated using PrestoBlue cell viability assay (Invitrogen, CA, USA) according to manufacturer's instructions. (Table 3).
(§3) Cells were incubated in serum free medium for 12 h followed by pretreatment for 60 min without or with 0.5, 1, 3 or 5 μM of the ERK inhibitor U0126, and then treated without or with 100 ng/ml anti-IGF-1R antibodies (Figitumumab or αIR-3 (Calbiochem, US). Cells were incubated in 96 well tissue culture plates for 48 hours and cell viability was measured by PrestoBlue cell viability assay. Fluorescence was measured with excitation at 560 nm and emission at 590 nm. Cell number was calculated from standard curves of fluorescence measurements from known numbers of cells. Triplicate cultures were performed on all experiments. The inhibition induced by anti-IGF-1R antibodies treated cells was calculated as percentage of untreated cells.

SKMel5 = test: PrestoBlue cell viability, anti-IGF-1R antibody with U0126, SKMel5 (melanoma); settings: 48 h
Method: as §1, §2, §3

MCF7 = test: PrestoBlue cell viability, anti-IGF-1R antibody with U0126, MCF7 (breast carcinoma); settings: 48 h
Method: as §1, §2, §3

ZR75-1 = test: PrestoBlue cell viability, anti-IGF-1R antibody with U0126, ZR75-1 (breast carcinoma); settings: ZR75-1 cells, 48 h
Method: as §1, §2, §3

MDA-MB-231 = test: PrestoBlue cell viability, anti-IGF-1R antibody with U0126, MDA-MB-231 (breast carcinoma); settings: MDA-MB-231 cells, 48 h
Method: as §1, §2, §3

OMM 2.3 = test: PrestoBlue cell viability, anti-IGF-1R antibody with U0126, OMM 2.3 (liver metastasis of uveal melanoma); settings: OMM 2.3 cells, 48 h
Method: as §1, §2, §3

OMM 2.5 = test: PrestoBlue cell viability, anti-IGF-1R antibody with U0126, OMM 2.5 (liver metastasis of uveal melanoma); settings: OMM 2.5 cells, 48 h
Method: as §1, §2, §3

H1703 = test: PrestoBlue cell viability, anti-IGF-1R antibody with U0126, H1703 (lung cancer); settings: 48 h
Method: as §1, §2, §3

SK-OV-3 = test: PrestoBlue cell viability, anti-IGF-1R antibody with U0126, SK-OV-3 (ovarian carcinoma); settings: SK-OV-3 cells, 48 h
Method: as §1, §2, §3

[1] = tested on: SKBR3 and IGF-1R knockout MEF cells (R−); test: Cell viability of negative control cells (PrestoBlue); settings: 100 ng/ml, 48 h
Method: FIG. 1A-FIG. 1C. Effects of Figitumumab (CP-751871 (CP)) treatment on cell viability in ES cell lines. (A) Cell lysates were prepared from the indicated cell lines and analyzed by WB for total IGF-1R expression and GAPDH as a loading control. […] Data correspond to the mean±SEM from three independent experiments. […] (C) Indicated cells were treated without and with 100 ng/ml CP for 48 h in the absence (SFM) or presence of 10% fetal bovine serum (Serum) and cell viability assayed by PrestoBlue reagent. […] Data correspond to the mean±SEM from three independent experiments. Statistical analysis compared with SKBR3: *P<0.05, **P<0.01, **P<0.001.
as §1
IGF-1R expression was investigated in a panel of validated Ewing's sarcoma (ES) cell lines: SKES, RDES, CADO, A673 and SKNMC. Breast cancer cell line SKBR3, expressing low IGF-1R levels and IGF-1R knockout MEF cells (R−) were used as negative controls. […]

IGF-1R = biological target: T1, IGF-1R (Homo sapiens, UniProt P08069); test: IGF-1R downregulation in ES cell lines (western blot)
T1 construct: all the ES cell lines tested expressed IGF-1R; endogenous in cells; host or cells: Ewing's sarcoma cell lines SKES, RDES, CADO, A673, SKNMC
Method: FIG. 2A-FIG. 2D. […] (A) Cells incubated in serum free medium for 12 h were treated with 0, 0.1 or 1 μg/ml CP for 24 h. Protein lysates were analyzed by WB for IGF-1R and GAPDH as a loading control. […] Protein lysates were analyzed by WB for IGF-1R and GAPDH as a loading control. Signals were quantified by densitometry, normalized to GAPDH and expressed as a percentage of the IGF-1R at 0 h. Data correspond to the mean±SEM from three independent experiments. […] IGF-1R was immunoprecipitated from lysates and analyzed by WB (IB) for ubiquitination (Ub) and IGF-1R as a loading control. Molecular weight markers in KDa are indicated to the left of the panels. (D) β-Arrestin1 (β-arr1) was immunoprecipitated from cell lysates prepared as for (C). Immunoprecipitated proteins were analyzed by WB for IGF-1R. The whole lysates were analyzed by WB for GAPDH as a loading control.
Appropriate primary antibody was incubated overnight at 4° C.
Given that β-arrestin1 (β-arr1) is a key protein involved in IGF-1R ubiquitination, we also investigated ligand induced IGF-1R/β-arr1 association.

[2] = U0126 0 μM (60 min pretreatment)
[3] = U0126 0.5 μM (60 min pretreatment)
[4] = U0126 1 μM (60 min pretreatment)
[5] = U0126 3 μM (60 min pretreatment)
[6] = U0126 5 μM (60 min pretreatment)

B1: CP-751,871: anti-IGF-1R antibody figitumumab (Pfizer), IGF-1R antagonist (antibody, chains of the INN, looked up)
heavy: EVQLLESGGGLVQPGGSLRLSCTASGFTFSSYAMNWVRQAPGKGLEWVSAISGSGGTTFYADSVKGRFTISRDNSRTTLYLQMNSLRAEDTAVYYCAKDLGWSDSYYYYYGMDVWGQGTTVTVSSASTKGPSVFPLAPCSRSTSESTAALGCLVKDYFPEPVTVSWNSGALTSGVHTFPAVLQSSGLYSLSSVVTVPSSNFGTQTYTCNVDHKPSNTKVDKTVERKCCVECPPCPAPPVAGPSVFLFPPKPKDTLMISRTPEVTCVVVDVSHEDPEVQFNWYVDGVEVHNAKTKPREEQFNSTFRVVSVLTVVHQDWLNGKEYKCKVSNKGLPAPIEKTISKTKGQPREPQVYTLPPSREEMTKNQVSLTCLVKGFYPSDIAVEWESNGQPENNYKTTPPMLDSDGSFFLYSKLTVDKSRWQQGNVFSCSVMHEALHNHYTQKSLSLSPG
light: DIQMTQFPSSLSASVGDRVTITCRASQGIRNDLGWYQQKPGKAPKRLIYAASRLHRGVPSRFSGSGSGTEFTLTISSLQPEDFATYYCLQHNSYPCSFGQGTKLEIKRTVAAPSVFIFPPSDEQLKSGTASVVCLLNNFYPREAKVQWKVDNALQSGNSQESVTEQDSKDSTYSLSSTLTLSKADYEKHKVYACEVTHQGLSSPVTKSFNRGEC
Percentage inhibition of antibody treated cells (100 ng/ml) (BE; [2]): 22%
Percentage inhibition of antibody treated cells (100 ng/ml) (BE; [3]): 27%
Percentage inhibition of antibody treated cells (100 ng/ml) (BE; [4]): 32%
Percentage inhibition of antibody treated cells (100 ng/ml) (BE; [5]): 45%
Percentage inhibition of antibody treated cells (100 ng/ml) (BE; [6]): 55%
Percentage inhibition of antibody treated cells (100 ng/ml) (SKMel5; [2]): 22%
Percentage inhibition of antibody treated cells (100 ng/ml) (SKMel5; [3]): 30%
Percentage inhibition of antibody treated cells (100 ng/ml) (SKMel5; [4]): 35%
Percentage inhibition of antibody treated cells (100 ng/ml) (SKMel5; [5]): 39%
Percentage inhibition of antibody treated cells (100 ng/ml) (SKMel5; [6]): 42%
Percentage inhibition of antibody treated cells (100 ng/ml) (MCF7; [2]): 15%
Percentage inhibition of antibody treated cells (100 ng/ml) (MCF7; [3]): 18%
Percentage inhibition of antibody treated cells (100 ng/ml) (MCF7; [4]): 25%
Percentage inhibition of antibody treated cells (100 ng/ml) (MCF7; [5]): 18%
Percentage inhibition of antibody treated cells (100 ng/ml) (MCF7; [6]): 33%
Percentage inhibition of antibody treated cells (100 ng/ml) (ZR75-1; [2]): 5%
Percentage inhibition of antibody treated cells (100 ng/ml) (ZR75-1; [3]): 9%
Percentage inhibition of antibody treated cells (100 ng/ml) (ZR75-1; [4]): 12%
Percentage inhibition of antibody treated cells (100 ng/ml) (ZR75-1; [5]): 12%
Percentage inhibition of antibody treated cells (100 ng/ml) (ZR75-1; [6]): 15%
Percentage inhibition of antibody treated cells (100 ng/ml) (MDA-MB-231; [2]): 8%
Percentage inhibition of antibody treated cells (100 ng/ml) (MDA-MB-231; [3]): 12%
Percentage inhibition of antibody treated cells (100 ng/ml) (MDA-MB-231; [4]): 15%
Percentage inhibition of antibody treated cells (100 ng/ml) (MDA-MB-231; [5]): 22%
Percentage inhibition of antibody treated cells (100 ng/ml) (MDA-MB-231; [6]): 32%
Percentage inhibition of antibody treated cells (100 ng/ml) (OMM 2.3; [2]): 12%
Percentage inhibition of antibody treated cells (100 ng/ml) (OMM 2.3; [3]): 35%
Percentage inhibition of antibody treated cells (100 ng/ml) (OMM 2.3; [4]): 45%
Percentage inhibition of antibody treated cells (100 ng/ml) (OMM 2.3; [5]): 65%
Percentage inhibition of antibody treated cells (100 ng/ml) (OMM 2.3; [6]): 97%
Percentage inhibition of antibody treated cells (100 ng/ml) (OMM 2.5; [2]): 7%
Percentage inhibition of antibody treated cells (100 ng/ml) (OMM 2.5; [3]): 33%
Percentage inhibition of antibody treated cells (100 ng/ml) (OMM 2.5; [4]): 65%
Percentage inhibition of antibody treated cells (100 ng/ml) (OMM 2.5; [5]): 87%
Percentage inhibition of antibody treated cells (100 ng/ml) (OMM 2.5; [6]): 89%
Percentage inhibition of antibody treated cells (100 ng/ml) (H1703; [2]): 10%
Percentage inhibition of antibody treated cells (100 ng/ml) (H1703; [3]): 15%
Percentage inhibition of antibody treated cells (100 ng/ml) (H1703; [4]): 25%
Percentage inhibition of antibody treated cells (100 ng/ml) (H1703; [5]): 28%
Percentage inhibition of antibody treated cells (100 ng/ml) (H1703; [6]): 32%
Percentage inhibition of antibody treated cells (100 ng/ml) (SK-OV-3; [2]): 17%
Percentage inhibition of antibody treated cells (100 ng/ml) (SK-OV-3; [3]): 25%
Percentage inhibition of antibody treated cells (100 ng/ml) (SK-OV-3; [4]): 35%
Percentage inhibition of antibody treated cells (100 ng/ml) (SK-OV-3; [5]): 55%
Percentage inhibition of antibody treated cells (100 ng/ml) (SK-OV-3; [6]): 67%
Cell viability of negative control cells [1]: unaffected
IGF-1R downregulation (IGF-1R; 100 ng/ml or 1 μg/ml, 24 h, serum starved, all ES cell lines): downregulate IGF-1R in a dose dependent manner
Rate of receptor degradation (IGF-1R; A673 cells, time-response): very fast
Receptor degradation compared with IGF-1 (time-response) (IGF-1R; SKES, RDES, CADO and SKNMC, molar concentration approximately 10 fold less than IGF-1): more efficient at inducing receptor degradation

— patent US20140335077A1, “Compositions and Methods for the Treatment of Cancer Using IGF-IR Antagonists and MAPK/ERK Inhibitors” (priority 2013, published 2014)
